Like-named read-outs stand apart in the source and are kept apart here.
Experiments:
[1] = biological target: T1, MHC class I molecule A*0101 (biotin (bound to streptavidin-coated plate)); experiment: iTopia peptide binding assay
T1 construct: iTopia monomer stripped of placeholder peptide and b2M, then reconstituted with test peptide and fresh b2M; also called A1; HLA-A1
Summary of the method: (§1)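 Plates coated with MHC class I molecules used to test 9-mer peptides for binding under standardized optimal conditions via the iTopia Epitope Discovery System. Read by ELISA in duplicate with allele-specific positive controls; binders taken on to affinity and off-rate testing.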

[2] = biological target: T2, MHC class I molecule A*0201 (biotin (bound to streptavidin-coated plate)); experiment: iTopia peptide binding assay
T2 construct: iTopia monomer stripped of placeholder peptide and b2M, then reconstituted with test peptide and fresh b2M; also called A2; HLA-A2
Summary of the method: as §1

[3] = biological target: T3, MHC class I molecule A*0301 (biotin (bound to streptavidin-coated plate)); experiment: iTopia peptide binding assay
T3 construct: iTopia monomer stripped of placeholder peptide and b2M, then reconstituted with test peptide and fresh b2M; also called A3; HLA-A3
Summary of the method: as §1

[4] = biological target: T4, MHC class I molecule B*0702 (biotin (bound to streptavidin-coated plate)); experiment: iTopia peptide binding assay
T4 construct: iTopia monomer stripped of placeholder peptide and b2M, then reconstituted with test peptide and fresh b2M; also called B7; HLA-B7
Summary of the method: as §1

[5] = biological target: T5, MHC class I allele A*0201 monomer (human, biotinylated, bound to streptavidin-coated plate); experiment: iTopia, multiparametric iScore
T5 construct: also called A2; HLA-A2
Procedure: (§2) The 9 mers were tested for Peptide Binding, Off Rate and Affinity using iTopia Epitope Discovery System in accordance with the manufacturer's instructions. Briefly, 96 well microtitre plates coated with MHC molecules representing different MHC alleles are used to identify candidate peptides. […] Determinations are performed in duplicate using an ELISA plate reader and included allele specific positive controls.
(§3) Finally, multiparametric analysis is performed on the results from these assays and an iScore is generated. The iScore represents a measure of the overall quality of peptide-MHC binding, enabling candidate peptides to be ranked in order of binding quality and allowing rational prioritisation of peptides for functional cellular follow-up studies.

[6] = biological target: T6, MHC class I molecule A*0201 (biotin (bound via biotin to streptavidin-coated plates)); experiment: iTopia affinity assay (ED50), peptide titration on plate-bound MHC
T6 construct: also called A2; HLA-A2
Procedure: as §2
Dose-response curves of peptide binding to MHC were prepared by peptide titration to determine the ED50 measurement for each peptide. Values for the concentrations tested (in duplicate) were obtained as a percentage of the highest (9000×) concentration of the positive control peptide. A dose-response curve was generated using GraphPad Prism® curve fitting software, which automatically calculated the ED50 (in Molarity) for each peptide.

[7] = biological target: T7, MHC class I allele A*0101 monomer (human, biotinylated, bound to streptavidin-coated plate); experiment: iTopia, multiparametric iScore
T7 construct: placeholder peptide and b2M removed, then reconstituted with test peptide and fresh b2M; also called A1; HLA-A1
Procedure: as §2, §3

[8] = biological target: T8, MHC class I allele A*0301 monomer (human, biotinylated, bound to streptavidin-coated plate); experiment: iTopia, multiparametric iScore
T8 construct: also called A3; HLA-A3
Procedure: as §2, §3

[9] = biological target: T9, MHC class I allele B*0702 monomer (human, biotinylated, bound to streptavidin-coated plate); experiment: iTopia, multiparametric iScore
T9 construct: also called B7; HLA-B7
Procedure: as §2, §3

[10] = biological target: T5, MHC class I allele A*0201 monomer; experiment: iTopia, multiparametric iScore; remark: listed apart in the source
Procedure: as §2, §3

Binder | binding, % of positive control peptide [1] | binding, % of positive control peptide [2] | binding, % of positive control peptide [3] | binding, % of positive control peptide [4] | other results
YRYEINADP [5T4 9-mer peptide 201 (YRYEINADP)] | 0 % of positive control | 0 % of positive control | 1 % of positive control | 3 % of positive control | 
KGIKKWMHN [5T4 9-mer peptide 190 (KGIKKWMHN)] | 3 % of positive control | 14 % of positive control | 3 % of positive control | 6 % of positive control | 
LGIVLALIG [5T4 9-mer peptide 180 (LGIVLALIG)] | 0 % of positive control | 10 % of positive control | 1 % of positive control | 0 % of positive control | 
FLTGNQLAV [5T4 9-mer peptide 49] |  |  |  |  | iScore [5]: 0.791
INADPRLTN [5T4 9-mer peptide 203 (INADPRLTN)] | 0 % of positive control | 3 % of positive control | 1 % of positive control | 4 % of positive control | 
PALCECSEA [5T4 9 mer peptide 32 (PALCECSEA)] |  |  |  |  | EC50 [6]: 4 µM
MRNRVLLEL [5T4 9-mer peptide 165 (MRNRVLLEL)] | 0 % of positive control | 6 % of positive control | 4 % of positive control | 13 % of positive control | 
ILNHIVPPE [5T4 9-mer peptide 90] |  |  |  |  | iScore [5]: 0.426
AFSGSNASV [5T4 9 mer peptide 81 (AFSGSNASV)] |  |  |  |  | EC50 [6]: 7 µM
DLDCDPILP [5T4 9-mer peptide 171 (DLDCDPILP)] | 0 % of positive control | 0 % of positive control | 4 % of positive control | 3 % of positive control | 
DPILPPSLQ [5T4 9-mer peptide 173 (DPILPPSLQ)] | 0 % of positive control | 7 % of positive control | 4 % of positive control | 0 % of positive control | 
YHYRYEINA [5T4 9-mer peptide 200 (YHYRYEINA)] | 0 % of positive control | 7 % of positive control | 1 % of positive control | 5 % of positive control | 
LIGAIFLLV [5T4 9-mer peptide 183] |  |  |  |  | iScore [7]: 0; iScore [8]: 0.07; iScore [9]: 0; iScore [5]: 1.9
GMVVAALLA [5T4 9-mer peptide 99] |  |  |  |  | iScore [5]: 0.384
RLDEVRAGA [5T4 9-mer peptide 65] |  |  |  |  | iScore [5]: 0.422
CAYPEKMRN [5T4 9-mer peptide 162 (CAYPEKMRN)] | 0 % of positive control | 11 % of positive control | 4 % of positive control | 3 % of positive control | 
HMADMVTWL [5T4 9-mer peptide 151] |  |  |  |  | iScore [7]: 0; iScore [10]: 0.821; iScore [8]: 0; iScore [9]: 0; iScore [5]: 0.821
LAELAALNL [5T4 9-mer peptide 59] |  |  |  |  | iScore [5]: 0.72
SADLDCDPI [5T4 9-mer peptide 170 (SADLDCDPI)] | 0 % of positive control | 4 % of positive control | 4 % of positive control | 3 % of positive control | 
GAIFLLVLY [5T4 9-mer peptide 184 (GAIFLLVLY)] | 0 % of positive control | 5 % of positive control | 5 % of positive control | 0 % of positive control | 

Binder | binding, % of positive control peptide [1] | binding, % of positive control peptide [2] | binding, % of positive control peptide [3] | binding, % of positive control peptide [4] | other results
DCDPILPPS [5T4 9-mer peptide 172 (DCDPILPPS)] | 0 % of positive control | 0 % of positive control | 3 % of positive control | 0 % of positive control | 
SLQTSYVFL [5T4 9-mer peptide 176] |  |  |  |  | iScore [7]: 0; iScore [10]: 0.561; iScore [8]: 0; iScore [9]: 0; iScore [5]: 0.561
SSAPFLASA [5T4 9 mer peptide 22 (SSAPFLASA)] |  |  |  |  | EC50 [6]: 0.3 µM
NIRDACRDH [5T4 9-mer peptide 194 (NIRDACRDH)] | 0 % of positive control | 1 % of positive control | 0 % of positive control | 6 % of positive control | 
PRLTNLSSN [5T4 9-mer peptide 205 (PRLTNLSSN)] | 2 % of positive control | 8 % of positive control | 2 % of positive control | 11 % of positive control | 
PLADLSPFA [5T4 9-mer peptide 77] |  |  |  |  | iScore [5]: 0.556
ACRDHMEGY [5T4 9-mer peptide 196 (ACRDHMEGY)] | 3 % of positive control | 8 % of positive control | 4 % of positive control | 7 % of positive control | 
LDLSNNSLV [5T4 9 mer peptide 120 (LDLSNNSLV)] |  |  |  |  | EC50 [6]: 20 µM
ILNHIVPPE [5T4 9 mer peptide 90 (ILNHIVPPE)] |  |  |  |  | EC50 [6]: 6 µM
PLADLSPFA [5T4 9 mer peptide 77 (PLADLSPFA)] |  |  |  |  | EC50 [6]: 2 µM
FLTGNQLAV [5T4 9 mer peptide 49 (FLTGNQLAV)] |  |  |  |  | EC50 [6]: 1 µM
SSAPFLASA [5T4 9-mer peptide 22] |  |  |  |  | iScore [5]: 0.389
EGYHYRYEI [5T4 9-mer peptide 199 (EGYHYRYEI)] | 0 % of positive control | 9 % of positive control | 0 % of positive control | 4 % of positive control | 
LNSADLDCD [5T4 9-mer peptide 169 (LNSADLDCD)] | 0 % of positive control | 0 % of positive control | 3 % of positive control | 0 % of positive control | 
GMVVAALLA [5T4 9 mer peptide 99 (GMVVAALLA)] |  |  |  |  | EC50 [6]: 0.6 µM
LELNSADLD [5T4 9-mer peptide 168 (LELNSADLD)] | 0 % of positive control | 3 % of positive control | 5 % of positive control | 3 % of positive control | 
IFLLVLYLN [5T4 9-mer peptide 185 (IFLLVLYLN)] | 0 % of positive control | 8 % of positive control | 0 % of positive control | 2 % of positive control | 
ILPPSLQTS [5T4 9-mer peptide 174] |  |  |  |  | iScore [7]: 0; iScore [10]: 0.523; iScore [8]: 0; iScore [9]: 0; iScore [5]: 0.523
RDHMEGYHY [5T4 9-mer peptide 197 (RDHMEGYHY)] | 11 % of positive control | 6 % of positive control | 3 % of positive control | 5 % of positive control | 

— patent US20090280138A1 (OXFORD BIOMEDICA UK, published 2009)
